For two substances, binding relative to NISTmAb Bex results are on record in article PMC9035890.

For test [1], the target named is Recombinant biotinylated protein A (Thermo Fisher 29989) (UniProt P38507). Briefly: SPR; Biacore T200, 25°C; biotinylated ligand captured on a CAP chip through the Biotin CAPture reagent; NISTmAb sample as analyte at 200 nmol/L in PBS-P+ pH 7.4, 50 μL/min, 100 s association, 300 s dissociation; response at the end of the association phase divided by that of NISTmAb Bex, mean of three independent experiments. On the technique in general: SPR reads the build-up and loss of mass on a sensor chip optically.

Test [2] has as its target Recombinant biotinylated protein L (Thermo Fisher 21189) (UniProt Q51918). Described as above.

For the substance “NISTmAb oxidised in solution, 0.3% H2O2, 30 min (0.3%Nox0.5hr) (antibody)”, the binding relative to NISTmAb Bex in test [1] came to 94.7%; in test [2] it was 99.3%.

For “NISTmAb oxidised in solution, 0.3% H2O2, 32 h (0.3%Nox32hr) (antibody)”, the values for the binding relative to NISTmAb Bex in test [1] and in test [2] were 38.5% and 92.6%, respectively.
